Measurements taken from US20210324099A1 (Chugai, published 2021).
Numbering of substitutions follows the chain as printed.

Legend:
[1] = target: T1, hCD137.1.2-F.G1d (human); assay: ELISA; 500 uM kynurenine, Ab 10 ug/mL
T1 construct: Portion of the human CD137 extracellular region linked to an antibody constant region
Protocol: (§1) Whether the obtained antibodies bind to antigens having a partial sequence of CD137 was assessed by ELISA. […] After the unbound antigens were removed from the plates by washing each well of the plates with the Wash Buffer, the wells were blocked with 50 μL of Blocking Buffer (BlockAce-containing TBS) for one hour or more. To wells from which the Blocking Buffer was removed, each well was supplemented with 10 μL of the purified antibodies prepared at 10 μg/mL in TBS with a final concentration of 500 μM L-kynurenine or TBS with a final concentration of 500 μM kynurenine, and it was left at rest for one hour. AP-conjugated anti-human Kappa antibodies (BIOSOURCE) diluted in TBS with a final concentration of 500 μM kynurenine were added to each well after washing with the Wash Buffer containing a final concentration of 500 μM kynurenine (TBS with 0.1% Tween20). After one hour of incubation, the BluePhos phosphate substrate (KPL) was added after washing with Wash Buffer containing 500 μM kynurenine. Color development of the solution in each well was measured by absorbance at 620 nm after the color development reaction of the solution in each well was stopped by adding the BluePhos Stop Solution. The ratio of absorbance by setting the value of the well with an antibody concentration of 0 μg/mL to 1 is shown.

[2] = target: T2, hCD137.1-F-G1d (human); assay: ELISA; 500 uM kynurenine, Ab 10 ug/mL
T2 construct: Portion of the human CD137 extracellular region linked to an antibody constant region
Protocol: as §1

[3] = target: T3, hCD137.2.3-F.G1d (human); assay: ELISA; 500 uM kynurenine, Ab 10 ug/mL
T3 construct: Portion of the human CD137 extracellular region linked to an antibody constant region
Protocol: as §1

[4] = target: T4, hCD137.3.4-F.G1d (human); assay: ELISA; 500 uM kynurenine, Ab 10 ug/mL
T4 construct: Portion of the human CD137 extracellular region linked to an antibody constant region
Protocol: as §1

[5] = target: T5, hCD137.2.4-F.G1d (human); assay: ELISA; 500 uM kynurenine, Ab 10 ug/mL
T5 construct: Portion of the human CD137 extracellular region linked to an antibody constant region
Protocol: as §1

[6] = target: T6, hFcgRIIaH (human, UniProt P12318 34-217); assay: SPR 25C; relative to A375-G1T3/B167-Lamlib;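 also: SPR with antibody captured on an anti-human Fab-lambda chip, human FcγR analyte at 8 nM for FcγRIa or 1000 nM for the others, pH 7.4, FcγR RU per captured antibody unit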
T6 construct: extracellular domain; also called human FcγRIIa type H (H131)
T6 sequence (looked up): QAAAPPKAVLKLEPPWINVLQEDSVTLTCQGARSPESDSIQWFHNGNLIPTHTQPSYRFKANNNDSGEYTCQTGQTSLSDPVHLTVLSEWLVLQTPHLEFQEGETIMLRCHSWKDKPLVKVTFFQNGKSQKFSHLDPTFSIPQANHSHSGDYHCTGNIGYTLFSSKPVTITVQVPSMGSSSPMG

[7] = target: T7, hFcgRIIb (human, UniProt P31994 43-217); assay: SPR 25C; relative to A375-G1T3/B167-Lamlib;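 also: SPR with antibody captured on an anti-human Fab-lambda chip, human FcγR analyte at 8 nM for FcγRIa or 1000 nM for the others, pH 7.4, FcγR RU per captured antibody unit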
T7 construct: extracellular domain; also called human FcγRIIb
T7 sequence (looked up): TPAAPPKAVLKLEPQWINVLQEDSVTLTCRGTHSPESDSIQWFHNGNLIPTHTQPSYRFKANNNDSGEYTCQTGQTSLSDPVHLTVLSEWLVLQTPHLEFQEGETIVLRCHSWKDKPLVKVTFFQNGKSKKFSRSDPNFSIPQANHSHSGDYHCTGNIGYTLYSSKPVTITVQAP

[8] = target: T8, hFcgRIa (human, UniProt P12314 16-292); assay: SPR 25C; relative to A375-G1T3/B167-Lamlib;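 also: SPR with antibody captured on an anti-human Fab-lambda chip, human FcγR analyte at 8 nM for FcγRIa or 1000 nM for the others, pH 7.4, FcγR RU per captured antibody unit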
T8 construct: extracellular domain; also called human FcγRIa; FcγRI

[9] = target: T9, hFcgRIIaR (human, UniProt P12318 34-217); assay: SPR 25C; relative to A375-G1T3/B167-Lamlib;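 also: SPR with antibody captured on an anti-human Fab-lambda chip, human FcγR analyte at 8 nM for FcγRIa or 1000 nM for the others, pH 7.4, FcγR RU per captured antibody unit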
T9 construct: extracellular domain; also called human FcγRIIa type R (R131)
T9 sequence (looked up): T6 sequence (looked up) with H134R

[10] = target: T10, hFcgRIIIaV (human, UniProt P08637 17-208); assay: SPR 25C; relative to A375-G1T3/B167-Lamlib
T10 construct: extracellular domain; also called human FcγRIIIa allotype V158

[11] = target: T11, hFcgRIIIaF (human, UniProt P08637 17-208); assay: SPR 25C; relative to A375-G1T3/B167-Lamlib
T11 construct: extracellular domain; also called human FcγRIIIa allotype F158

[12] = target: T6, hFcgRIIaH; assay: SPR 25C
Protocol: (§2) Biacore T200 (GE Healthcare) was used to evaluate the binding activity to the respective human Fcγ receptor (hereafter referred to as FcγR). Measurement was performed at 25° C. using 50 mM phosphate, 150 mM NaCl, 0.05 w/v %-P20, pH 7.4 as buffer. About 1000 RU of antibody was captured using a sensor chip immobilized with CaptureSelect™ Human Fab-lambda Kinetics Biotin Conjugate (Thermo Fisher Scientific) as a molecule for ligand capturing. Human FcγR was diluted to 8 nM for FcγRIa and 1000 nM for other FcγR in the measurement buffer, and it was interacted to the captured antibody. The binding activity of each antibody to FcγR was assessed by calculating the binding amount of FcγR (RU) per unit amount of antibody using Biacore T200 Evaluation Software 2.0.

[13] = target: T7, hFcgRIIb; assay: SPR 25C
Protocol: as §2

[14] = target: T8, hFcgRIa; assay: SPR 25C
Protocol: as §2

[15] = target: T9, hFcgRIIaR; assay: SPR 25C
Protocol: as §2

[16] = target: T10, hFcgRIIIaV; assay: SPR 25C
Protocol: as §2

[17] = target: T11, hFcgRIIIaF; assay: SPR 25C
Protocol: as §2

[18] = target: human FcRn (human, UniProt P55899 24-290; P61769 21-119, limits assumed); assay: SPR 25C pH 6.0, steady state;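 also: antibody captured on chip via anti-human Fab-lambda ligand, human FcRn injected as analyte in 50 mM phosphate buffer with 150 mM NaCl and P20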
Protocol: Biacore T200 (GE Healthcare) was used to assess the binding activity to human FcRn. Measurement was performed at 25° C. using 50 mM phosphate, 150 mM NaCl, 0.05 w/v %-P20, pH 6.0 as buffer. […] About 400 RU of antibody was captured using a sensor chip immobilized with CaptureSelect™ Human Fab-lambda Kinetics Biotin Conjugate (Thermo Fisher Scientific) as a molecule for ligand capturing, followed by the binding of human FcRn diluted in measuring buffer. The activity of the respective antibodies to bind FcRn was assessed by calculating KD (mol/L) by the steady-state model using Biacore T200 Evaluation Software 2.0.

[19] = target: T12, hCD137(FXa digested) (human, UniProt Q07011 24-186); assay: SPR 37C; ATP 10 uM
T12 construct: also called human CD137 extracellular domain
Protocol: (§3) Measurements of human CD137 binding were taken at 37° C. using 20 mM ACES (pH 7.4), 150 mM NaCl, 2 mM MgCl₂, and 0.05% Tween20 as running buffer. At first, antibodies were captured by interacting antibody solutions prepared in running buffer with the rabbit anti-mouse IgG (Thermo Scientific)-immobilized Series S Sensor Chip CMS (GE Healthcare). The human CD137-binding activity in the presence of ATP and in the absence of ATP was then assessed by interacting with a human CD137 solution prepared in running buffer supplemented with a desired concentration of ATP, or a human CD137 solution prepared in running buffer without ATP. […] The chip was regenerated using 25 mM NaOH and 10 mM Glycine-HCl (pH 1.5), and measurements were performed by repeatedly capturing antibodies. Dissociation constant (KD) of the respective antibodies for human CD137 was calculated using Biacore T200 Evaluation Software 2.0. Specifically, the association rate constant ka (L/mol/s) and the dissociation rate constant kd (1/s) were calculated by global fitting of the sensorgrams obtained by measurement with the 1:1 Langmuir binding model, and the dissociation constant KD (mol/L) was calculated from these values.

[20] = target: T12, hCD137(FXa digested); assay: SPR 37C; ATP 100 uM
Protocol: as §3

[21] = target: T12, hCD137(FXa digested); assay: SPR 37C; ATP 1 uM
Protocol: as §3

[22] = target: T12, hCD137(FXa digested); assay: SPR 37C; no ATP
Protocol: as §3
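For binding per 1RU of antibody in this document: biacore SPR with antibody captured on an anti-human Fab lambda chip, human FcγR injected at 1000 nM (FcγRIa at 8 nM) in pH 7.4 phosphate buffer.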

T8 sequence (P12314 16-292): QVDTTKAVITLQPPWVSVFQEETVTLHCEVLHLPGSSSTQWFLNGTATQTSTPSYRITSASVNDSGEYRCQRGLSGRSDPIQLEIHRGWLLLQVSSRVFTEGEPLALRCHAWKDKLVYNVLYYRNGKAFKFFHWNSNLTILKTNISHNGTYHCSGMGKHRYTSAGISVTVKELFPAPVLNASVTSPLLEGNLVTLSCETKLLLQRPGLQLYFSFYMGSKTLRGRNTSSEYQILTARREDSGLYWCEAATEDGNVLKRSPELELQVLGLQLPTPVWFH
T10 sequence (P08637 17-208 F176V): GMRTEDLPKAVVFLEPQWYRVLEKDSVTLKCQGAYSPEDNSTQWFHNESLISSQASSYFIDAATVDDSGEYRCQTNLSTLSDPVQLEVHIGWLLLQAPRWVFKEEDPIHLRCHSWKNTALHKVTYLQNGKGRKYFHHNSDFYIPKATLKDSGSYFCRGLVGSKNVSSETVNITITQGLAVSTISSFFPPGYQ
T1 sequence (chain, as listed by the source limits assumed): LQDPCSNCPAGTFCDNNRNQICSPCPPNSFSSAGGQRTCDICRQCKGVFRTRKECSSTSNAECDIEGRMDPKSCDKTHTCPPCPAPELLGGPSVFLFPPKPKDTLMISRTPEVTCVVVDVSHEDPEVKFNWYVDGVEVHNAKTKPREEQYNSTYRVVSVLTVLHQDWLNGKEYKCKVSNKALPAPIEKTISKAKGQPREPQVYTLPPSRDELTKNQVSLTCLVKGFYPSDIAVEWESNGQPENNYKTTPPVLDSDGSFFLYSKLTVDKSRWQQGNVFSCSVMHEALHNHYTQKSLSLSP
T2 sequence (chain, as listed by the source limits assumed): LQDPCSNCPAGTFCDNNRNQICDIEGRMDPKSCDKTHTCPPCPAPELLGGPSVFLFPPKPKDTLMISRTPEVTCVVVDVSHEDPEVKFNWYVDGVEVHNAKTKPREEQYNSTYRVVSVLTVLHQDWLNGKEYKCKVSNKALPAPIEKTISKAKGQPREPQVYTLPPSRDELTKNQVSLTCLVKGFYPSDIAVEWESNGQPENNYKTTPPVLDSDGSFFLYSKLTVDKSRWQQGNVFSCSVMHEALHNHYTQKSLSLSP
T11 sequence (P08637 17-208): as the sequence (P08637 17-208 F176V) above, with V160F counted along it
T3 sequence (chain, as listed by the source limits assumed): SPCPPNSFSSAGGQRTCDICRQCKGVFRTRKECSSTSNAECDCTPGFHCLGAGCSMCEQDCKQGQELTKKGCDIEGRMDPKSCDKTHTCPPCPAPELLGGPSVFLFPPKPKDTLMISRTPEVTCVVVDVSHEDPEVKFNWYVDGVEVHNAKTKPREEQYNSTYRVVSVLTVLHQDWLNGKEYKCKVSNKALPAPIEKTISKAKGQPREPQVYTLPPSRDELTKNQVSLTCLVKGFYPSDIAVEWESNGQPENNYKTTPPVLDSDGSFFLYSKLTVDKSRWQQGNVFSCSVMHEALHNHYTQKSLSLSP
Chain of human FcRn (P55899 24-290 limits assumed, chain 1 of 2): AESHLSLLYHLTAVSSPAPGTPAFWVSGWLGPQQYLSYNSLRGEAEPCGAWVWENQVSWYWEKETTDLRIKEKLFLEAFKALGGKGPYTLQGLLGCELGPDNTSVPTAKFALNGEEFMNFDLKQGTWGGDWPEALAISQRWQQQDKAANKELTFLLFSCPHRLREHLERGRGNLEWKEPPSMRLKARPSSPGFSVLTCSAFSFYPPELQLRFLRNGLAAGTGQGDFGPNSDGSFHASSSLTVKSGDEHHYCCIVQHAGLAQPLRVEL
Chain of human FcRn (P61769 21-119 limits assumed, chain 2 of 2): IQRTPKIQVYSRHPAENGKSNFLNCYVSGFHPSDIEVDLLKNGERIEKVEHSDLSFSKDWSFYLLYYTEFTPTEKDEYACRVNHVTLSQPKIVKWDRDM
T5 sequence (chain, as listed by the source limits assumed): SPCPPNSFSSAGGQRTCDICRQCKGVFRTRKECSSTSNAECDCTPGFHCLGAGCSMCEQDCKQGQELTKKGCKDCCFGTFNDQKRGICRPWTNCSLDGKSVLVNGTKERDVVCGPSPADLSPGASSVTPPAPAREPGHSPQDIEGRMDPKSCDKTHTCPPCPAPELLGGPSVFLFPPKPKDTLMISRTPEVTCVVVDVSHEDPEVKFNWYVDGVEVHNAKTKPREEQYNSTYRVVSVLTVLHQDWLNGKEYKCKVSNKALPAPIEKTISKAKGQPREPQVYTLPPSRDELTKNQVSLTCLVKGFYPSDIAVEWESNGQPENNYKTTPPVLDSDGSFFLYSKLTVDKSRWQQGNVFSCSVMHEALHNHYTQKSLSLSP

B1: dBBK026-P253 (antibody, human IgG1, kappa, V domains shown)
VH: QVQLVQSGAEVKKPGSSVKVSCKASGGEFSNYFISWVRQAPGQGLEWMGMVHPIEGWAVYAQKFQGRVTITADESTSTAYMELSSLRSEDTAVYYCARDRPVFCCPRGAFDIWGQGTLVTVSS
VL: DIVMTQSPLSLPVTPGEPASISCRSSQSLVSPGDNTFLSWYLQKPGQSPQLLIYEIERRFYGVPDRFSGSGSGTDFTLKISRVEAEDVGVYYCMQASTFPRTFGQGTKVEIKR
For B1, the absorbance ratio [1] was 1.2, the absorbance ratio [2] was 1 and the absorbance ratio [3] was 1.1.

B2: dBBK051-P253 (antibody, human IgG1, kappa, V domains shown)
VH: QVQLVQSGAEVKKPGSSVKVSCKASGGGFSSYGISWVRQAPGQGLEWMGALFPISSQASYAQKFQGRVTITADESTSTAYMELSSLRSEDTAVYYCARDRPVDYVPHGAFDIWGQGTLVTVSS
VL: B1 VL
B2 showed an absorbance ratio [1] of 1.2 and an absorbance ratio [2] of 1.2.

B3: dBBK101-P253 (antibody, human IgG1, kappa, V domains shown)
VH: QVQLVQSGAEVKKPGSSVKVSCKASGGAFSYYLISWVRQAPGQGLEWMGFVDPIRGGAFYAQKFQGRVTITADESTSTAYMELSSLRSEDTAVYYCARDRPVNAAPRGAFDIWGQGTLVTVSS
VL: B1 VL with S31G, P32D, G33R, D34G, F37Y, E57G, R58S, R59I, S97A, T98E
For B3, the absorbance ratio [1] was 1.2 and the absorbance ratio [2] was 1.3.

B4: dBBK060-P253 (antibody, human IgG1, kappa, V domains shown)
VH: QVQLVQSGAEVKKPGSSVKVSCKASGGDFSNYVISWVRQAPGQGLEWMGFINPIYGAAGYAQKFQGRVTITADESTSTAYMELSSLRSEDTAVYYCARDEPVASLPHGAFDIWGQGTLVTVSS
VL: B1 VL with S31D, G33W, D34G, E57S, R58N, S97K, T98D, Q105P
B4 was tested, and the absorbance ratio [1] was 1.4, the absorbance ratio [2] was 1.2 and the absorbance ratio [3] was 1.2.

B5: dBBK070-P253 (antibody, human IgG1, kappa, V domains shown)
VH: QVQLVQSGAEVKKPGSSVKVSCKASGGWFSHYSISWVRQAPGQGLEWMGVVWPIRSFATYAQKFQGRVTITADESTSTAYMELSSLRSEDTAVYYCARDNPVTSWPHGAFDIWGQGTLVTVSS
VL: B1 VL with S31R, G33F, D34G, E57S, R58T, S97H, T98Q
B5 showed an absorbance ratio [2] of 1.8 and an absorbance ratio [4] of 1.2.

B6: dBBK102-P253 (antibody, human IgG1, kappa, V domains shown)
VH: B3 VH
VL: B1 VL with S31W, P32N, G33D, D34R, E57R, R58K, S97Q, T98D
In the case of B6, the absorbance ratio [1] is reported as 1.2, the absorbance ratio [2] is reported as 1.2 and the absorbance ratio [4] is reported as 1.1. It also gave an absorbance ratio [3] of 1.1 and an absorbance ratio [5] of 1.1.

B7: A375-TT14/B167-Lamlib (antibody, human IgG1, lambda)
heavy: EVQLVESGGGLVKPGGSLRLSCAASGFTFSTFTMNWVRQAPGKGLEWVSSISSKSTYIEYADSFKVRFTISRDNAKNSLYLQMNSLRAEDTAVYYCARYGAKNFLNWVFDYWGQGTLVTVSSASTKGPSVFPLAPSSKSTSGGTAALGCLVKDYFPEPVTVSWNSGALTSGVHTFPAVLQSSGLYSLSSVVTVPSSSLGTQTYICNVNHKPSNTKVDKKVEPKSCDKTHTCPPCPAPEYLGGDSVFLFPPKPKDVLMISRTPEVTCVVIDVSHEDPEVKFNWYVDGVEVHNAKTKPREEQYNSTYRVVSVLPVLHQDWLNGKEYKCKVSNKALPKPIEKTISKAKGQPREPQVYTLPPSREEMTKNQVSLTCLVKGFYPSDIAVEWESNGQPENNYKTTPPVLDSDGSFFLYSKLTVDKSRWQQGNVFSCSVMHEALHNHYTQKSLSLSP
light: QSALTQPPSASGSPGQTVTISCTGTRYDVGYYEYVSWYQQHPGKAPKLMIYETSKRLSGVPDRFSGSKSGNTASLTVSGLQAEDEADYYCSSYRYEHQVSFGGGTKLTVLGQPKAAPSVTLFPPSSEELQANKATLVCLISDFYPGAVTVAWKADSSPVKAGVETTTPSKQSNNKYAASSYLSLTPEQWKSHRSYSCQVTHEGSTVEKTVAPTECS
notes: copies: 2 + 2
Binder B7 has a relative binding amount [6] of 0.07, a relative binding amount [7] of 7.34 and a relative binding amount [8] of 0.05. It also gave a relative binding amount [9] of 0.14, a relative binding amount [10] of 0 and a relative binding amount [11] of 0. For the same binder, the “binding per 1RU of antibody” value [12] was 0.0042 RU, the “binding per 1RU of antibody” value [13] was 0.0805 RU and the “binding per 1RU of antibody” value [14] was 0.0045 RU. For the same binder, the “binding per 1RU of antibody” value [15] was 0.0067 RU, the “binding per 1RU of antibody” value [16] was 0.0003 RU and the “binding per 1RU of antibody” value [17] was 0 RU. For the same binder, the Kd [18] was 1770 nM.

B8: A375-TT16/B167-Lamlib (antibody, human IgG1, lambda)
heavy: B7 heavy with G242D, I269V
light: B7 light
notes: copies: 2 + 2
For B8, the relative binding amount [6] was 0.22, the relative binding amount [7] was 9.94 and the relative binding amount [8] was 0.04. The relative binding amount [9] was 0.77, the relative binding amount [10] was 0 and the relative binding amount [11] was 0. For the same binder, the “binding per 1RU of antibody” value [12] was 0.0126 RU, the “binding per 1RU of antibody” value [13] was 0.109 RU and the “binding per 1RU of antibody” value [14] was 0.0034 RU. The “binding per 1RU of antibody” value [15] was 0.0359 RU, the “binding per 1RU of antibody” value [16] was -0.0002 RU and the “binding per 1RU of antibody” value [17] was 0.0001 RU. It also gave a Kd [18] of 1510 nM.

B9: 20H4.9-MB110/20H4.9LC-mk0 (antibody, mouse IgG1, kappa)
heavy: QVQLQQWGAGLLKPSETLSLTCAVYGGSFSGYYWSWIRQSPEKGLEWIGEINHGGYVTYNPSLESRVTISVDTSKNQFSLKLSSVTAADTAVYYCARDYGPGNYDWYFDLWGRGTLVTVSSAKTTPPSVYPLAPGSAAQTNSMVTLGCLVKGYFPEPVTVTWNSGSLSSGVHTFPAVLQSDLYTLSSSVTVPSSTWPSETVTCNVAHPASSTKVDKKIVPRDCGCKPCICTVPEVSDVFIFPPKPKDVLTITLTPKVTCVVVDISKDDPEVQFSWFVDDVEVHTAQTQPREEQFNSTFRSVSELPIMHQDWLNGKEFKCRVNSAAFPAPIEKTISKTKGRPKAPQVYTIPPPKEQMAKDKVSLTCMITDFFPEDITVEWQWNGQPAENYKNTQPIMDTDGSYFVYSKLNVQKSNWEAGNTFTCSVLHEGLHNHHTEKSLSHSPGK
light: EIVLTQSPATLSLSPGERATLSCRASQSVSSYLAWYQQKPGQAPRLLIYDASNRATGIPARFSGSGSGTDFTLTISSLEPEDFAVYYCQQRSNWPPALTFGGGTKVEIKRADAAPTVSIFPPSSEQLTSGGASVVCFLNNFYPKDINVKWKIDGSERQNGVLNSWTDQDSKDSTYSMSSTLTLTKDEYERHNSYTCEATHKTSTSPIVKSFNRNEC
notes: also called NS1-MB110
For B9, the Kd [19] was 53.9 nM, the Kd [20] was 51.9 nM and the Kd [21] was 56.5 nM. The Kd [22] was 61 nM.

B10: 20H4.9-mIgG1/20H4.9LC-mk0 (antibody)
heavy: B9 heavy with D237S
light: B9 light
notes: also called NS1-mIgG1
B10 gave a Kd [19] of 54.4 nM, a Kd [20] of 53.6 nM and a Kd [21] of 56.2 nM. It also gave a Kd [22] of 61.7 nM.

B11: 20H4.9-MB492/20H4.9LC-mk0 (antibody, mouse IgG1, kappa)
heavy: B9 heavy with T231E, V232P, P233N, S236E, N322D
light: B9 light
notes: also called NS1-MB492
With B11 the Kd [19] was 53.5 nM, the Kd [20] was 50.4 nM and the Kd [21] was 54.9 nM. The Kd [22] was 61.6 nM.
